For test [1], the target named is T1, biotin-rabbit aggrecan G1-IGD-G2-3xFlag (rabbit, UniProt Q28670 17-683, biotin on the N-terminal Avi-tag (BirA co-expression)).
T1 construct: three tandem Flag-tags at the C-terminus and Avi-tag at the N-terminus; also called biotinylated Avi-rabbit aggrecan G1-IGD-G2-3xFLAG; Avi RbG1G2 3FLAG
The test is described as follows: SPR (Biacore T200), 37 C, pH 7.4, antibody captured by protein A/G, 1:1 model. (Surface plasmon resonance follows binding to a sensor surface in real time, without labels.)
Description: (§1) The binding affinity of the antibodies at pH 7.4 was determined at 37 degrees C. using Biacore T200 instrument (GE Healthcare). Recombinant Protein A/G (Pierce) was immobilized onto all flow cells of a CM4 sensor chip using amine coupling kit (GE Healthcare). Antibodies and analytes were prepared in buffer (20 mM Sodium Phosphate, 150 mM NaCl, 0.05% Tween 20, 0.005% NaN₃, pH 7.4). Each antibody was captured onto the sensor surface by protein A/G. Antibody capture levels were aimed at 200 resonance unit (RU). […] Sensor surface was regenerated each cycle with 10 mM Glycine-HCl pH 1.5.

The target in test [2] is T2, Human aggrecan G1-IGD-G2 domain with Flag-tag on its C-terminus (human, UniProt P16112 17-675).
T2 construct: used unlabelled as Biacore analyte; also called human aggrecan G1-IGD-G2-Flag; human Aggrecan G1G2 flag
Described as above.
Description: as §1

Test [3] deals with T1, biotin-rabbit aggrecan G1-IGD-G2-3xFlag. The test is described as follows: SPR (Biacore), 37 C, as in Example 20.
Description: as §1
Test [4] has as its target T2, Human aggrecan G1-IGD-G2 domain with …. Description: SPR (Biacore), 37 C, as in Example 20.
Description: as §1
For the next test, the target named is T3, human CD3ed-Fc (human).
T3 construct: human CD3 epsilon and human CD3 delta linked to a human antibody constant region, biotinylated in culture with BirA; also called CD3 epsilon delta heterodimer fused with the antibody constant region; biotin-labeled human CD3ed-Fc
T3 chain 1: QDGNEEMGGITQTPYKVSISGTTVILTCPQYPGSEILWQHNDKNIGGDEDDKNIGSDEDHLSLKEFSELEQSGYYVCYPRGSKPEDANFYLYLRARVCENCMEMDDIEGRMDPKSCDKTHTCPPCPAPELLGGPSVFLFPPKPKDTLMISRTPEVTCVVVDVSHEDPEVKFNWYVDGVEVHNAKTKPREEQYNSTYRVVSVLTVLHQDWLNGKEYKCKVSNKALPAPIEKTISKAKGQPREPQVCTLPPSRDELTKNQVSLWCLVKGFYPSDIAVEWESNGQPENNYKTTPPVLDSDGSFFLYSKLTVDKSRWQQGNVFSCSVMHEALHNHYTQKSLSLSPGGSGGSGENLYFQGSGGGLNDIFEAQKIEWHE
T3 chain 2: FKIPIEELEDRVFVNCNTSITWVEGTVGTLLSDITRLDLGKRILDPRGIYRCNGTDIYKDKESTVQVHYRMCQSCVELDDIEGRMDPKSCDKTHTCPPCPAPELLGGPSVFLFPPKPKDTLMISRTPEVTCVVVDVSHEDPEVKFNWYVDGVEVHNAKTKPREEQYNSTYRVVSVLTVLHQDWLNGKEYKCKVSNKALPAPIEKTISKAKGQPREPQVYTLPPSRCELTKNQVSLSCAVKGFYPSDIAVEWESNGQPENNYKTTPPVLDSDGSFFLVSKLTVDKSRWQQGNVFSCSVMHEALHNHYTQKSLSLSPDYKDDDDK
The test is described as follows: BLI (Octet RED), human CD3ed-Fc on the sensor.

The target in a further test is T4, biotinylated plexin A1 (human, UniProt Q9UIW2 27-1253, biotin on the AviTag sequence (BirA co-expression)).
T4 construct: extracellular region of plexin A1 linked to AviTag and FLAG tag; also called biotin-labeled human plexin A1; human plexin A1
The test is described as follows: BLI (Octet), in the same way as in Example 3. Background: Biolayer interferometry detects binding as a change in optical thickness at a sensor tip.

Test [5] has as its target T1, biotin-rabbit aggrecan G1-IGD-G2-3xFlag. The test is described as follows: SPR (Biacore T200), 37 C, pH 7.4, antibody captured, Avi RbG1G2 3Flag as analyte, 1:1 model; second row with this name.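 Note: antibodies captured at roughly 200 RU on a CM4 or C1 chip through anti-human IgG Fc or Protein A/G, in sodium phosphate NaCl buffer with Tween 20.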
Description: (§2) Anti-Human IgG (Fc) antibody was immobilized onto all flow cells of a CM4 sensor chip using Human antibody capture kit (GE Healthcare). Protein A/G was immobilized onto all flow cells of a CM4 or C1 sensor chip using amine coupling kit (GE Healthcare). Antibodies and analytes were prepared in buffer (50 mM Sodium Phosphate, 150 mM NaCl, 0.02% Tween 20, 0.005% NaN3, pH 7.4 or 20 mM Sodium Phosphate, 150 mM NaCl, 0.05% Tween20, 0.005% NaN₃, pH 7.4). Each antibody was captured onto the sensor surface by Anti-Human IgG (Fc) antibody or Protein A/G. Antibody capture levels were aimed at 200 resonance unit (RU). […] Sensor surface was regenerated each cycle with 3 M MgCl₂ or 10 mM Glycine-HCl, pH 1.5.
The target is the same in test [6]. The test is described as follows: SPR (Biacore T200), 37 C, pH 7.4, antibody captured, Avi RbG1G2 3Flag as analyte, 1:1 model.
Description: as §2
The target is the same in test [7]. The test is described as follows: SPR (Biacore T200), 37 C, pH 7.4, antibody captured by protein A/G, 1:1 model; footnote: fitting was not good due to bi-phasic interaction.
Description: as §1
Test [8] deals with T2, Human aggrecan G1-IGD-G2 domain with …. Described as above.
Description: as §1

Usually Kd stands for a measure of binding affinity in units of concentration. In general, koff refers to the rate constant with which the complex falls apart. A lower koff goes with slow dissociation. Broadly, the kon is a measure of how fast the partners come together. A low value points to slower complex formation.

T4 sequence (Q9UIW2 other isoform, or with tags, fused parts or gaps limits assumed): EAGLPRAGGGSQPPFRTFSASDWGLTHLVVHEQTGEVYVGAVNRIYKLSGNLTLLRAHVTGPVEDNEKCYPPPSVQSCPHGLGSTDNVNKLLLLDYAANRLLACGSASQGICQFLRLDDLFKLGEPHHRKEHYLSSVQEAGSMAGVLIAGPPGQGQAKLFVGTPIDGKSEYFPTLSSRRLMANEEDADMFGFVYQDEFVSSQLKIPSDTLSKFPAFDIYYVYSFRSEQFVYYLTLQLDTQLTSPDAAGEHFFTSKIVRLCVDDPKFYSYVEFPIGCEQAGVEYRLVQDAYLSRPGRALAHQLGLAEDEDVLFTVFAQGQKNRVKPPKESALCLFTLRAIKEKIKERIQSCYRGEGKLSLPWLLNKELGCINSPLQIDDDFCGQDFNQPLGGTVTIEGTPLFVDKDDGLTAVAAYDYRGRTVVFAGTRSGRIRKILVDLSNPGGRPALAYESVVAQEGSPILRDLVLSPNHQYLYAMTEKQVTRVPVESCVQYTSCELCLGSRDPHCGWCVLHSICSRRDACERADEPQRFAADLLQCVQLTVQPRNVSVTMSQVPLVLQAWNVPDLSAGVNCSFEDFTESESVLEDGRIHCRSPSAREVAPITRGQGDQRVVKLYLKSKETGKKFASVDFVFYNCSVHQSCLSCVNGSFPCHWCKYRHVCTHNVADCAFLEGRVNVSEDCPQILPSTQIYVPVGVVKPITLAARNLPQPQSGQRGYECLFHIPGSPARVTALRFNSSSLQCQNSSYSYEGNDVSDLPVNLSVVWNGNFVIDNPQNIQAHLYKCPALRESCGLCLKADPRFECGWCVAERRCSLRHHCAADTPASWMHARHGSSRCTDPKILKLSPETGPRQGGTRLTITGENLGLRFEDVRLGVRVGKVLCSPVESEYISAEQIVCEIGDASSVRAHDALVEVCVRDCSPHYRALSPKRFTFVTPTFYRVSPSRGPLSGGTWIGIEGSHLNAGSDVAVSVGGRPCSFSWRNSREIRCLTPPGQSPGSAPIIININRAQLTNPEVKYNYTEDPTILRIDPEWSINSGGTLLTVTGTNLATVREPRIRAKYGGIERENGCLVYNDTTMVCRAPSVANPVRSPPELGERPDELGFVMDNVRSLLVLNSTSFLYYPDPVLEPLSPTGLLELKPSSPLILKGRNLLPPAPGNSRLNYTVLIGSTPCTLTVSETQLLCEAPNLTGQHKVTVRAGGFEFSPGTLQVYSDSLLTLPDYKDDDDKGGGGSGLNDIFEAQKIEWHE

B1: GRA1013hq-rIgG (antibody)
heavy: EVKLMESGGGLVKPGGSLKLSCAASGFTFSSYAMSWVRQTPEKRLEWVTSISSGGTTYYPDSVKGRFTISRDNARNILFLQMSSLRSEDTAMYYCARGPHWYLDVWGAGTSVTVSSSTKGGQPKAPSVFPLAPCCGDTPSSTVTLGCLVKGYLPEPVTVTWNSGTLTNGVRTFPSVRQSSGLYSLSSVVSVTSSSQPVTCNVAHPATNTKVDKTVAPSTCSKPMCPPPELLGGPSVFIFPPKPKDTLMISRTPEVTCVVVDVSQDDPEVQFTWYINNEQVRTARPPLREQQFNSTIRVVSTLPIAHQDWLRGKEFKCKVHNKALPAPIEKTISKARGQPLEPKVYTMGPPREELSSRSVSLTCMINGFYPSDISVEWEKNGKAEDNYKTTPTVLDSDGSYFLYSKLSVPTSEWQRGDVFTCSVMHEALHNHYTQKSISRSPGK
light: DILMTQTPLSLPVSLGDQASISCRSSQSIVHSNGNTYLEWYLQKPGQSPKLLIYKVSNRFSGVPDRFSGSGSGTDFTLKISRVEAEDLGVYYCFQGSHLPLTFGAGTKLELKRTVAARDPVAPTVLIFPPAADQVATGTVTIVCVANKYFPDVTVTWEVDGTTQTTGIENSKTPQNSADSTYNLSSTLTLTSTQYNSHKEYTCKVTQGTTSVVQSFNRGDC
notes: anti-aggrecan antibody from mouse B cells, rabbit constant regions rbIgG / rbIgK2
Consider B1, for which, in test [1], the Kd came out at 459 nM, the koff was found to be 0.00973 s⁻¹ and the kon came to 21200 M⁻¹ s⁻¹. In addition, in [2], binding was characterised by a dissociation constant (Kd) of 1540 nM, the koff came out at 0.0406 s⁻¹ and the kon is 26300 M⁻¹ s⁻¹.

B2: GRA0124ccAE02-rbIgG (antibody)
heavy: QSVEESGGRLVTPGTPLTLTCTVSGVDLSNYAIHWVRQAPGKGLEWIGMIRSNGMRYYGTWAKGRFTTSKTSSTTVDLKMTSPTTEDTATYFCARLWNIWGPGTLVTVSSGQPKAPSVFPLAPCCGDTPSSTVTLGCLVKGYLPEPVTVTWNSGTLTNGVRTFPSVRQSSGLYSLSSVVSVTSSSQPVTCNVAHPATNTKVDKTVAPSTCSKPMCPPPELLGGPSVFIFPPKPKDTLMISRTPEVTCVVVDVSQDDPEVQFTWYINNEQVRTARPPLREQQFNSTIRVVSTLPIAHQDWLRGKEFKCKVHNKALPAPIEKTISKARGQPLEPKVYTMGPPREELSSRSVSLTCMINGFYPSDISVEWEKNGKAEDNYKTTPTVLDSDGSYFLYSKLSVPTSEWQRGDVFTCSVMHEALHNHYTQKSISRSPGK
light: QVLTQTPSSTSVAVGGTVTINCQSSPSVYLNLLAWYQQKPGQPPKLLIYSASFLQSGVPPRFSGSGSGTQFTLTISGVQCADAATYYCAGVYSNNIYTFGGGTKVEIKRDPVAPTVLIFPPAADQVATGTVTIVCVANKYFPDVTVTWEVDGTTQTTGIENSKTPQNSADCTYNLSSTLTLTSTQYNSHKEYTCKVTQGTTSVVQSFNRGDC
notes: also called GRA0124ccAE02-rIgG
As to B2, in test [3], binding was put at a Kd of 16.4 nM, the koff worked out at 0.000333 s⁻¹ and the kon came out at 20400 M⁻¹ s⁻¹. Moreover, in test [4], binding was characterised by a dissociation constant (Kd) of 553 nM, the koff came to 0.0108 s⁻¹ and the kon is 19500 M⁻¹ s⁻¹.

B3: bC3edL1R1N160H01-G1mISHI01/VK1-39-k0MT (antibody, human IgG1, kappa, V domains shown)
VH: QVQLVESGGGLVQPGGSLRLSCAASGFTFNHCWMYWVRQAPGKGLEWVSVINTDGGSAYYADSVKGRFTISRDNAKNTLYLQMNSLKSEDTAVYYCARDWAPLVDYYYGMDYWGKGTLVTVSG
VL: DIQMTQSPSSLSASVGDRVTITCRASQSISSYLNWYQQKPGKAPKLLIYAASSLQSGVPSRFSGSGSGTDFTLTISSLQPEDFATYYCLQFDSYPLTFGGGTKVEIKR
For B3, the binding result in the test with human CD3ed-Fc was “no binding”.

B4: bC3edL1R1N164H01-G1mISHI01/VK1-39-k0MT (antibody, human IgG1, kappa, V domains shown)
VH: QVQLVESGGGLVQPGGSLRLSCAASGFTFDVYGMSWVRHSPGKGLEWVSTINWNGGSTYYAESMKGRFTISRDNAKNTVYLQMNSLKPEDTAVYYCAKFAPWDGDMEWGQGTQVTVSG
VL: DIQMTQSPSSLSASVGDRVTITCRASQSISSYLNWYQQKPGKAPKLLIYAASSLQSGVPSRFSGSGSGTDFTLTISSLQPEDFATYYCLQFDSYPLTFGGGTKVEIKR
notes: uncleaved
Regarding B4, the binding result with human CD3ed-Fc was “no binding”.

B5: PX02-R4_017-G1mISHI01/VK1-39-k0MT (antibody, human IgG1, kappa, V domains shown)
VH: QVQLVESGGGLVQPGGSLRLSCTASGISFSISTMGWYRQAPGKQRELVATITSGGEAYYANSMKDRFTISRDNAENTVYLQMNRLKPEDSAVYYCNTKFPWSTDWNARGQGTQVTVSG
VL: DIQMTQSPSSLSASVGDRVTITCRASQSISSYLNWYQQKPGKAPKLLIYAASSLQSGVPSRFSGSGSGTDFTLTISSLQPEDFATYYCLQFDSYPLTFGGGTKVEIKR
notes: uncleaved; light chain printed once for the five molecules
B5: the binding result with biotinylated plexin A1 is given as “no binding”.

B6: bC3edL1R1N161H01-G1mISHI01/VK1-39-k0MT (antibody, human IgG1, kappa, V domains shown)
VH: QVQLVESGGGLVQPGGSLRLSCAASGFPFDNYVMSWVRQAPGKGLEWISAISWNGGSTYYAESMKGRFTISRDNAKSTLYLQMNSLKSEDTAVYYCAKEPRVYYSGSPDYWGQGTQVTVSG
VL: DIQMTQSPSSLSASVGDRVTITCRASQSISSYLNWYQQKPGKAPKLLIYAASSLQSGVPSRFSGSGSGTDFTLTISSLQPEDFATYYCLQFDSYPLTFGGGTKVEIKR
notes: uncleaved
As to B6, in the test with human CD3ed-Fc, the binding result was “no binding”.

B7: PX03-R2_006-G1mISHI01/VK1-39-k0MT (antibody, human IgG1, kappa, V domains shown)
VH: QLQLVESGGGLVQPGGSLRLSCTASGISFSISTMGWYRQAPGKQRELVATIASGGEAYYANSVKGRFTISRDNAENTVYLQMNRLKPEDSAVYYCNTKFPWSTDWNARGQGTQVTVSG
VL: DIQMTQSPSSLSASVGDRVTITCRASQSISSYLNWYQQKPGKAPKLLIYAASSLQSGVPSRFSGSGSGTDFTLTISSLQPEDFATYYCLQFDSYPLTFGGGTKVEIKR
notes: as for B5
Consider B7, for which the binding result with biotinylated plexin A1 is “no binding”.

B8: GRA0124Hc0626-SG1/GRA0124Lc0544-SK2 (antibody, human IgG1, kappa)
heavy: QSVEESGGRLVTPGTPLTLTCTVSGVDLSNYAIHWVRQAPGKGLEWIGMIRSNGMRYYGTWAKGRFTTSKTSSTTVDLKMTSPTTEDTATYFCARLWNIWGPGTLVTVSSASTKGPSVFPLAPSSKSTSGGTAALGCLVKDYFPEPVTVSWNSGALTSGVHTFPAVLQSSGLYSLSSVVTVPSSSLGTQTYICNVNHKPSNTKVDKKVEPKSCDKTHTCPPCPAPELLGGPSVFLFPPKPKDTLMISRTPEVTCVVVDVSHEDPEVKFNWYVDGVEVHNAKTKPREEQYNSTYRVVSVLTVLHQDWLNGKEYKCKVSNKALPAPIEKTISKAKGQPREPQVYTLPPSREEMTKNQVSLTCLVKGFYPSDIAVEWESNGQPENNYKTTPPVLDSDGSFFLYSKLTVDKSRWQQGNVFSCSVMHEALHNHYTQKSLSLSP
light: AQVLTQTPSSTSVAVGGTVTINCQSSPSVYLNLLAWYQQKPGQPPKLLIYSASFLQSGVPPRFSGSGSGTQFTLTISGVQCADAATYYCAGVYSNNIYTFGGGTKVEIKRTVAAPSVFIFPPSDEQLKSGTASVVCLLNNFYPREAKVQWKVDNALQSGNSQESVTEQDSKDCTYSLSSTLTLSKADYEKHKVYACEVTHQGLSSPVTKSFNRGEC
notes: also called GRA0124ccAE02-SG1; GRA124ccAE02-SG1
B8: in [5], the Kd stood at 4.07 nM, the koff amounted to 0.000341 s⁻¹ and the kon was 83800 M⁻¹ s⁻¹. In addition, in test [6], the Kd was found to be 15.6 nM, the koff was 0.000838 s⁻¹ and the kon stood at 53900 M⁻¹ s⁻¹.

B9: GRA0105gg-rbIgG (antibody)
heavy: QSLEESGGGLVTPGTPLTLTCTVSGLSLSNSVMSWVRQAPGKGLEWIGFISIHDETNYATWAKGRFTISKTSSTTVDLKMTSPTTDDTATYFCARDGDSHGFYFGLWGPGTLVTVSSGQPKAPSVFPLAPCCGDTPSSTVTLGCLVKGYLPEPVTVTWNSGTLTNGVRTFPSVRQSSGLYSLSSVVSVTSSSQPVTCNVAHPATNTKVDKTVAPSTCSKPMCPPPELLGGPSVFIFPPKPKDTLMISRTPEVTCVVVDVSQDDPEVQFTWYINNEQVRTARPPLREQQFNSTIRVVSTLPIAHQDWLRGKEFKCKVHNKALPAPIEKTISKARGQPLEPKVYTMGPPREELSSRSVSLTCMINGFYPSDISVEWEKNGKAEDNYKTTPTVLDSDGSYFLYSKLSVPTSEWQRGDVFTCSVMHEALHNHYTQKSISRSPGK
light: QVLTQTPSPVSAAVGGTVTINCQASQSVYNKNNLAWYQQKPGQPPKLLIYDASKLASGVPSRFKGGGSGTHFTLTISGVQCDDAATYYCQGTYYSSGWYNTFGGGTKVEIKRDPVAPTVLIFPPAADQVATGTVTIVCVANKYFPDVTVTWEVDGTTQTTGIENSKTPQNSADCTYNLSSTLTLTSTQYNSHKEYTCKVTQGTTSVVQSFNRGDC
notes: anti-aggrecan antibody, rabbit constant regions rbIgG / rbIgK
Consider B9, for which, in test [7], binding was characterised by a dissociation constant (Kd) of 4.42 nM, the koff is 0.000255 s⁻¹ and the kon was found to be 57700 M⁻¹ s⁻¹. In test [8], binding was characterised by a dissociation constant (Kd) of 3.16 nM, the koff was 0.000287 s⁻¹ and the kon turned out to be 91100 M⁻¹ s⁻¹.

These data come from patent publication US20210221875A1 (Chugai, published 2021).
